Results as given in patent US20220186206, “NOVEL Cas ENZYME AND SYSTEM, AND USE THEREOF” (SHANDONG SHUNFENG BIOTECHNOLOGY CO., LTD., published 2022).

T1: UkCpf1 (in cells) (uncultivated microorganism (metagenome))
T1 chain: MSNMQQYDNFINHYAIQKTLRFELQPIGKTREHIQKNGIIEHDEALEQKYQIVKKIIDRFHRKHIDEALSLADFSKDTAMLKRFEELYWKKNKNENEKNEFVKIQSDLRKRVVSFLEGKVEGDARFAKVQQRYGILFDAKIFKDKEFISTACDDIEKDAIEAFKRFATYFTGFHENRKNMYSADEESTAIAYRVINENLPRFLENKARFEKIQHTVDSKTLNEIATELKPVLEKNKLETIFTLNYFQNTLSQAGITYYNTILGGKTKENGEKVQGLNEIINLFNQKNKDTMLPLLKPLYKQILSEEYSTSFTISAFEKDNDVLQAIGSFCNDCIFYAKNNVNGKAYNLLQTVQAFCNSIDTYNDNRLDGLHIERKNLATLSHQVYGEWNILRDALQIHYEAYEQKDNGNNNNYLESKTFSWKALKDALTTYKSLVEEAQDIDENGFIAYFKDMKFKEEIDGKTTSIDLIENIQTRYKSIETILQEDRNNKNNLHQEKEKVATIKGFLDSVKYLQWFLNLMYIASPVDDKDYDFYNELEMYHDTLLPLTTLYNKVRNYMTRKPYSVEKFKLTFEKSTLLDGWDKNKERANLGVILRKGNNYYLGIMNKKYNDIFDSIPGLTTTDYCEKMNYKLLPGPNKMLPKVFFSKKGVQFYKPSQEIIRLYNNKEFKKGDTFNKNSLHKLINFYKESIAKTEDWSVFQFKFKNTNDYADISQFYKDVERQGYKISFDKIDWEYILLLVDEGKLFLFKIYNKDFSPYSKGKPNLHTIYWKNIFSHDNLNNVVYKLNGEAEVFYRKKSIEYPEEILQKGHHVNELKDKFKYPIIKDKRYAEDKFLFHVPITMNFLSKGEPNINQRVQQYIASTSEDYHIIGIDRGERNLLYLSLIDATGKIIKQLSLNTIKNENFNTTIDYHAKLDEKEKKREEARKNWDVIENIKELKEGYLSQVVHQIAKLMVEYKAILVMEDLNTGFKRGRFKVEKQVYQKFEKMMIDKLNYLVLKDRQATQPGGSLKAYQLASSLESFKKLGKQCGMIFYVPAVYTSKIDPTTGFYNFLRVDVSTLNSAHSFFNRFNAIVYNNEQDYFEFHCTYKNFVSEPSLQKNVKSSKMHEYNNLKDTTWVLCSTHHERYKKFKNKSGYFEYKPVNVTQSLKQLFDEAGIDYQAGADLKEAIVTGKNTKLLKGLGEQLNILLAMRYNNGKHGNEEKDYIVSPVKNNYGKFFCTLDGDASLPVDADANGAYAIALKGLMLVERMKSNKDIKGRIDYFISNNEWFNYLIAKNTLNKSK


Target: T1, UkCpf1 (in cells)
Assay: cell_activity; rice protoplast; PAM 5'-YYV

Binder | activity
gRNA gTGW6-2 (UkCpf1 DR + spacer) ; TGW6-2 target (ssRNA ; dsDNA) RNA: AUUUCUACUAUUGUAGAUUUUCACCGACAGCAGCAUGAACU DNA 1: TTTCACCGACAGCAGCATGAACT DNA 2: AGTTCATGCTGCTGTCGGTGAAA | 0.39 % indel
gRNA gTGW6-5 (UkCpf1 DR + spacer) ; TGW6-5 target (ssRNA ; dsDNA) RNA: AUUUCUACUAUUGUAGAUCGUGUAGCUGGGGCUGUACGUGU DNA 1: CGTGTAGCTGGGGCTGTACGTGT DNA 2: ACACGTACAGCCCCAGCTACACG | 0.73 % indel
gRNA gTGW6-3 (UkCpf1 DR + spacer) ; TGW6-3 target (ssRNA ; dsDNA) RNA: AUUUCUACUAUUGUAGAUUUGACCUGCCAGGCUAUCCUGAU DNA 1: TTGACCTGCCAGGCTATCCTGAT DNA 2: ATCAGGATAGCCTGGCAGGTCAA | 0.57 % indel
